pKd: −log10 of the molar value.
Assays:
Assay in all cases: other fluorescence titration; tryptophan fluorescence quenching: intrinsic fluorescence of the β subunit or β1a-SH3 domain in the cuvette (sub-micromolar; 50 nM β1a-FL for the AID titration) monitored while titrating the II-III loop or peptides; excitation 280 nm, emission 340 nm; corrected for dilution and intrinsic fluorescence of the titrant; nonlinear regression
[1] = biological target: DHPR β1a subunit, full length (mouse) (UniProt Q8R3Z5)
[2] = biological target: DHPR β1a SH3 domain (β1a residues V101-P272) (mouse) (UniProt Q8R3Z5)
[3] = biological target: β1a/β2a RT loop chimera, HE to PG mutant (mouse)
[4] = biological target: β2a HE to PG mutant (mouse) (UniProt Q8CC27)

Chain of DHPR β1a SH3 domain (β1a residues V101-P272) (mouse) (Q8R3Z5 other isoform, or with tags, fused parts or gaps): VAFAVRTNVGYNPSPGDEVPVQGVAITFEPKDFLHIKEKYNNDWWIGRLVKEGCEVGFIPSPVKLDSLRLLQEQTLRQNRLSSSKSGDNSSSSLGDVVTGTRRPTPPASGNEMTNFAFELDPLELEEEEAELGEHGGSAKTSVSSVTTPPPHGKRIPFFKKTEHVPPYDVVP
Chain of DHPR β1a subunit, full length (mouse) (Q8R3Z5 other isoform, or with tags, fused parts or gaps): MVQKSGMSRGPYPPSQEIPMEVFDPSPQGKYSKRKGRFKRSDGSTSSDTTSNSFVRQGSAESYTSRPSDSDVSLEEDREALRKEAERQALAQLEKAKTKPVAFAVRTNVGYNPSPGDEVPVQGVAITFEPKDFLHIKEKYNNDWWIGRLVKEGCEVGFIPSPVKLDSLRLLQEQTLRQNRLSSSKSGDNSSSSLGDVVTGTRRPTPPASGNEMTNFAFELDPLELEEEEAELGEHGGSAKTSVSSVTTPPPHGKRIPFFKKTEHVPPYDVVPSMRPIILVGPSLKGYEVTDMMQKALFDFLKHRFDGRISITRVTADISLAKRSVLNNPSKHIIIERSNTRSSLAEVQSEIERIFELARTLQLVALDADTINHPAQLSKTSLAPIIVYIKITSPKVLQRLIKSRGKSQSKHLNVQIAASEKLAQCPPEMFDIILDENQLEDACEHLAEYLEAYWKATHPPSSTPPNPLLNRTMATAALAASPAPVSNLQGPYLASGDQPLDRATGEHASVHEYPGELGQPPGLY
Chain of α1s II–III loop C region peptide (residues 720–765) (P07293 720-765): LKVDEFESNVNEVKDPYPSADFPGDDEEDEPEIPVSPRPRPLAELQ

Substance DHPR α1s I-II loop AID peptide has a pKd [1] of 7.82.

With “sP1 A⟶P mutant (from UniProt P07293 733-745) (peptide)” the pKd [2] was 5.64 and the pKd [1] was 5.35.

Work on “sP1 D⟶E mutant (from UniProt P07293 733-745) (peptide)” yielded a pKd [2] of 4.77 and a pKd [1] of 4.82.

Substance “sP1 F⟶T mutant (from UniProt P07293 733-745) (peptide)” has a pKd [2] of 5.34 and a pKd [1] of 5.34.

“sP1 P⟶T mutant (from UniProt P07293 733-745) (peptide)” showed a pKd [2] of 4.72 and a pKd [1] of 4.66.

“α1s C binding peptide 1 (from UniProt P07293 733-745)” gave a pKd [2] of 5.59 and a pKd [1] of 5.44.

In the case of “α1s C binding peptide 2 (from UniProt P07293 748-764)”, the pKd [2] was 5.42 and the pKd [1] was 5.27.

“α1s II–III loop C region peptide (residues 720–765) (from UniProt P07293 720-765)” was tested, and the pKd [3] was 5.06 and the pKd [4] was 4.98.
